Laboratory results: patent publication CN114456267A

Molecular target: T1, 重组人CD73蛋白 (human) (UniProt P21589)
T1 sequence (looked up): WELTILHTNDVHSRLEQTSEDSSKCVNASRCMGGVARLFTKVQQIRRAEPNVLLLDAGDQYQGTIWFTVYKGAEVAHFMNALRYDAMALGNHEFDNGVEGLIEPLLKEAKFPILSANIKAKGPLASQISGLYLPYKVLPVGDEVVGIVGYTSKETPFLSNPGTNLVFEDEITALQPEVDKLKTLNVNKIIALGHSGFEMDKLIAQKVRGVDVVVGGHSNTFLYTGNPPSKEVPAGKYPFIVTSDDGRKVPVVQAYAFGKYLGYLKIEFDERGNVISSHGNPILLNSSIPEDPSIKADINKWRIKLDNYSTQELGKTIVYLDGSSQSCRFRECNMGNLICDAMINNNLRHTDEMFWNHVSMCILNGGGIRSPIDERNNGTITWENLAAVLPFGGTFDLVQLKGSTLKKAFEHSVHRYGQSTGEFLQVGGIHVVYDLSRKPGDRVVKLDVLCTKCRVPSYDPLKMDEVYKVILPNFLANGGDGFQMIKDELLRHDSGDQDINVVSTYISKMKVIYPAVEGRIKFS
Assay: ELISA, plate coated with 1 μg/mL recombinant human CD73, anti-human IgG-HRP detection

B1: 抗CD73人源化单克隆抗体5A4 (antibody, part only; not given: Light chain variable region, part only)
VH: SICFEGKPDMNQRDKEDHMRVFMNSWDDWYDVKLWHCIDFERAHRPQHYPIMAQVQLVQSGAEVKKPGASVKVSCKASGYSFTDYNMYWVRQAPGQGLEWMGYIDPYNGDASYAQKFQGRVTMTRDTSTSTVYMELSSLRSEDTAVYYCAKTDYWGQGTTLTVSSCLAKLPCGSHTWVWWQEMIQNAPWCVQPTHDHWAPAGWNHGCCILAHAENIQGAQWFAY
  亲和力 (affinity): 8.3e-13 mol/L
